Results on 15 molecules are retold here after article PMC314469, “Protein Interaction Networks by Proteome Peptide Scanning” (PLoS Biology, 2004).

Holding throughout (experiment): SPOT array
The target of assay [1] is T1, Boi1 SH3 (BOI1_YEAST), P38041.
T1 chain: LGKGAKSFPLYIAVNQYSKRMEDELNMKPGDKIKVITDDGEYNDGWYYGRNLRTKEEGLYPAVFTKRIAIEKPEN

Assay [2] deals with T2, Boi2 SH3 (BOI2_YEAST), P39969.
T2 chain: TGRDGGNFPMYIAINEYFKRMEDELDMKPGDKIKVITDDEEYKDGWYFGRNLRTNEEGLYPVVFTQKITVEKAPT

Assay [3] deals with T3, Rvs167 SH3 (RV167_YEAST), P39743.
T3 chain: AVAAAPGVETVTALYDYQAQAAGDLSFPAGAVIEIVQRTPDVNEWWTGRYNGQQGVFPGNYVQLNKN

The target of assay [4] is T4, Yfr024 SH3 (LSB3_YEAST), P43603.
T4 chain: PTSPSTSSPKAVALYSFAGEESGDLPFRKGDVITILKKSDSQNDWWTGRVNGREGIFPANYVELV

For assay [5], the target named is T5, Yhr016c SH3 (YSC84_YEAST), P32793.
T5 chain: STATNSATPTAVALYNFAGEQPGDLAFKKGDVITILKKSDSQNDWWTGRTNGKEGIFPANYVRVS

As to QLLPNNPDKNNNGT [YKL159C 151-164], the normalised SPOT signal, Boehringer light units (BLU); mean over the file's lines of this peptide came to 149 in assay [1]; 52.3 in assay [2]; 0 in assay [3]; 49.9 in assay [4]; 130 in assay [5].

For the molecule QNNPPKPQKPVPLN [YOR290C 415-428], the normalised SPOT signal, Boehringer light units (BLU); mean over the file's lines of this peptide in assay [1] is 14.1; in assay [2] it was -0; in assay [3] it was 23.6; in assay [4], 116; in assay [5], 148.

As to QLEPLAPYKFFDII [YLR430W 1690-1703], the normalised SPOT signal, Boehringer light units (BLU); mean over the file's lines of this peptide came out at 85.7 in assay [1]; 23.8 in assay [2]; 62.7 in assay [3]; 70.2 in assay [4]; 334 in assay [5].

QPAPRIPSKDAIIS [YAL051W 100-113]: the normalised SPOT signal, Boehringer light units (BLU); mean over the file's lines of this peptide was 58.1 in assay [1]; 23.6 in assay [2]; 169 in assay [3]; 1610 in assay [4]; 95.9 in assay [5].

QPKPGNPLRNARLN [YMR191W 37-50]: the normalised SPOT signal, Boehringer light units (BLU); mean over the file's lines of this peptide was found to be 174 in assay [1]; 21.7 in assay [2]; 49.2 in assay [3]; 266 in assay [4]; 169 in assay [5].

QILPTKPVKIIEQN [YLR082C 68-81]: the normalised SPOT signal, Boehringer light units (BLU); mean over the file's lines of this peptide in assay [1] came to 30.5; in assay [2] it was 36.5; in assay [3] it was 14.6; in assay [4], 183; in assay [5], 73.8.

Regarding QMNPKNPIRLGMAN [YOR227W 657-670], the normalised SPOT signal, Boehringer light units (BLU); mean over the file's lines of this peptide is 679 in assay [1]; 118 in assay [2]; 25.7 in assay [3]; 866 in assay [4]; 182 in assay [5].

For QMRPYTPLRSPNSR [YOR093C 49-62], the normalised SPOT signal, Boehringer light units (BLU); mean over the file's lines of this peptide in assay [1] is 2880; in assay [2], 1420; in assay [3] it was 1140; in assay [4], 4420; in assay [5], 1440.

Turning to QPLPTSPSKRFSSL [YOR372C 249-262], the normalised SPOT signal, Boehringer light units (BLU); mean over the file's lines of this peptide worked out at 53.8 in assay [1]; 94.3 in assay [2]; 32.1 in assay [3]; 164 in assay [4]; 249 in assay [5].

As for QLTPLLPDKYFDSA [YBL066C 693-706], the normalised SPOT signal, Boehringer light units (BLU); mean over the file's lines of this peptide in assay [1] is 50.1; in assay [2] it was 19.8; in assay [3], 106; in assay [4] it was 516; in assay [5] it was 207.

For the molecule QNTPPLPPKPKSPH [YCL008C 175-188], the normalised SPOT signal, Boehringer light units (BLU); mean over the file's lines of this peptide in assay [1] came to 102; in assay [2], 46; in assay [3], 1050; in assay [4] it was 38500; in assay [5], 18200.

For the molecule QLLPNVPDKVLVPG [YDL220C 391-404], the normalised SPOT signal, Boehringer light units (BLU); mean over the file's lines of this peptide came to 87.7 in assay [1]; 49.5 in assay [2]; 67.5 in assay [3]; 69 in assay [4]; 92.2 in assay [5].

As to QLFPVRPVRVRHED [YDL150W 198-211], the normalised SPOT signal, Boehringer light units (BLU); mean over the file's lines of this peptide in assay [1] was 34100; in assay [2], 5900; in assay [3] it was 11400; in assay [4], 28800; in assay [5], 13600.

In the case of QQKPAIPQKKSFLT [YPR171W 424-437], the normalised SPOT signal, Boehringer light units (BLU); mean over the file's lines of this peptide was 170 in assay [1]; 71.9 in assay [2]; 42.5 in assay [3]; 3880 in assay [4]; 101 in assay [5].

Regarding QKTPPSPAKPKQKT [YBR102C 26-39], the normalised SPOT signal, Boehringer light units (BLU); mean over the file's lines of this peptide in assay [1] is 331; in assay [2], 43.4; in assay [3], 156; in assay [4], 365; in assay [5], 176.
